Where two headings read alike, the source gives them in different places. Numbered stars: 1 amine (or outer) side, 2 acyl side, 3 side chain; on linkers, the order of the positions; unused ones are H or OH. Bridge positions count the residues as written; N and C are the ends. Square brackets hold non-standard residues; d marks the D form. Peptide text beside a SMILES is read from it. Gly(N-CH2CH2-imidazol-4-yl) = O=C(O)CNCCc1c[nH]cn1; TBMB = c1c(C[*:1])cc(C[*:3])cc1C[*:2]
Columns and labels:
human plasma Kallikrein [1] = biological target: T1, human plasma Kallikrein (Homo sapiens, UniProt P03952); assay: Functional enzyme inhibition assay with fluorogenic substrate Z-PheArg-AMC, human plasma Kallikrein; assay type: biochemical; settings: for Ki: read-out: Ki; for F (Kivar/KiWT): ratio of Ki to wild type
T1 construct: purchased Stratech, UK
Method in brief: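 Human plasma kallikrein at 26.5 pM was preincubated 15 minutes with test peptide in Tris/NaCl/MgCl2/CaCl2/BSA buffer pH7.4 at 25° C, then Z-PheArg-AMC added to 100 μM final in 4% DMSO.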

[2] = Plasma stability / fragment profiling Method #2 (MALDI-TOF, 95% plasma), human plasma; assay type: in vitro ADME; settings: for Fragments (human plasma): peptide fragments observed after incubation in human plasma
Description: To obtain stability data more rapidly, peptides were also assessed in 95% plasma. Here, PBS was omitted, and a 1 mM peptide stock (in DMSO) was directly diluted into plasma (i.e. 2.5 uL stock into 47.5 uL plasma), giving a final concentration of 50 uM. 5 uL samples were taken at appropriate time points and frozen at −80 deg C. For analysis, the samples were defrosted, mixed with 15 uL of 1:1 acetonitrile:methanol, and centrifuged at 13 k for 5 min. 5 uL of the peptide-containing supernatant was aspirated and mixed with 30 mM ammonium bicarbonate in a 1:1 mixture of acetonitrile:H2O. 1 uL of this was then spotted on the MALDI plate and analysed as described above. As above, it should be noted that this is a qualitative assay serves to detect relative changes in plasma stability.
Ac-06-34-18(TMB)-NH2 Phe2 Tyr4 (referred to as wild type peptide) was subsequently subjected to human plasma, and analysed for fragments to appear over time. This was compared to the degradation profile observed in human plasma using the NMe-Arg5 derivative of 06-34-18 (FIGS. 18a and 18b). Fragmentation was determined according to Method #2.

human plasma Kallikrein [3] = biological target: T1, human plasma Kallikrein; assay: Phage selections against human plasma Kallikrein (abundance in selection output); assay type: binding; settings: Table 17; relative abundance in the total selection outputs
Description: Glycerol stocks of phage libraries were diluted to OD600=0.1 in 500 ml 2YT/chloramphenicol (30 μg/ml) cultures and phage were produced at 30° C. over night (15-16 hrs). Phage were purified and chemically modified as described in Heinis, et al., Nat Chem Biol 2009, 5 (7), 502-7 Biotinylated hPK (3 μg) (IHPKA, from human plasma, Innovative Research, Novi, Mich., USA) was incubated with 50 μl pre-washed magnetic streptavidin beads (Dynal, M-280 from Invitrogen, Paisley, UK) for 10 minutes at RT. Beads were washed 3 times prior to blocking with 0.5 ml washing buffer (10 mM Tris-Cl, pH 7.4, 150 mM NaCl, 10 mM MgCl2, 1 mM CaCl2) containing 1% BSA and 0.1% Tween 20 for 30 minutes at RT with rotation. […] Blocked beads were then mixed with the blocked chemically modified phage and incubated for 30 minutes on a rotating wheel at
RT. Beads were washed 8 times with washing buffer containing 0.1% Tween 20 and twice with washing buffer before incubation with 100 μl of 50 mM glycine, pH 2.2 for 5 minutes. Eluted phage were transferred to 50 μl of 1 M Tris-Cl, pH 8 for neutralization, incubated with 30 ml TG1 cells at OD600=0.4 for 90 minutes at 37° C. and the cells were plated on large 2YT/chloramphenicol plates. One or two additional rounds of panning were performed using the same procedures. In the second round of selection, neutravidin-coated magnetic beads were used to prevent the enrichment of streptavidin-specific peptides. The neutravidin beads were prepared by reacting 0.8 mg neutravidin (Pierce, Rockford, Ill., USA) with 0.5 ml tosyl-activated magnetic beads (Dynal, M-280 from Invitrogen, Paisley, UK) according to the supplier's instructions.
The WPAR (SEQ ID No. 19) motif identified from Example 1 was analysed in the context of the 06-34-03 peptide, in order to identify alternatives or improvements to the WPAR motif. A library was constructed where positions 1, 6, 7, 8, 9 &10 of 06-34-03 were fixed and positions 2, 3, 4 & 5 were randomised (see ‘Randomisation of peptide domains—Library construction’ in Methods above). Selections against human plasma Kallikrein were performed at a variety of stringencies (see Phage selections' in Methods above). All output sequences were identified and analysed for target binding (see ‘Randomisation of peptide domains—Assay of binding of individual clones’ in Methods above). Table 17 lists each unique sequence, its relative abundance in the selection output (frequency), and a rank number according to target binding strength.

[4] = Table 3a, Alanine scan in Loop2
[5] = Table 3b, D-amino acid scan in Loop2

T1 sequence (P03952 20-638): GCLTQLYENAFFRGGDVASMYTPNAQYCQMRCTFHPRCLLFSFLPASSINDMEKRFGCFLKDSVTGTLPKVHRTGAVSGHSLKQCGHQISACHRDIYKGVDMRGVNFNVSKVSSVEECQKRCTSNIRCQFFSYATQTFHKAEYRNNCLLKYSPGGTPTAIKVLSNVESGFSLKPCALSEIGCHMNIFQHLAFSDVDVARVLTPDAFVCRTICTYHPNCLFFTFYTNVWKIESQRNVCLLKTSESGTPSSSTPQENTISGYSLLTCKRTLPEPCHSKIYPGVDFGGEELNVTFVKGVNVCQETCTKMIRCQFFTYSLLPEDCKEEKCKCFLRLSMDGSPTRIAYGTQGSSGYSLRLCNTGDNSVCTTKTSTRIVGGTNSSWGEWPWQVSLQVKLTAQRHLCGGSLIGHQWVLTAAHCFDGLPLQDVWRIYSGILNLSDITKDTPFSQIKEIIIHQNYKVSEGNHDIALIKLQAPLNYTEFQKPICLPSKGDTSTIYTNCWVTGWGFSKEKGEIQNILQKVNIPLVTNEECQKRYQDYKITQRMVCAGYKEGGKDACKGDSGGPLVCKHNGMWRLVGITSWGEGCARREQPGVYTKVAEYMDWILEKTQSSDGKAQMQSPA

Molecule	FREQUENCY (human plasma Kallikrein [3])	further results
CC(=O)N[C@H]1CSCc2cc3cc(c2)CSC[C@H](NC(=O)[C@H](CCCNC(=N)N)NC(=O)[C@H](Cc2ccc(O)cc2)NC(=O)[C@@H]2CCCN2C(=O)[C@H](Cc2ccccc2)NC(=O)[C@H](CO)NC1=O)C(=O)N[C@@H](C)C(=O)N[C@@H](Cc1c[nH]cn1)C(=O)N[C@@H](CCC(N)=O)C(=O)N[C@@H](CC(=O)O)C(=O)N[C@@H](CC(C)C)C(=O)N[C@H](C(N)=O)CSC3 [Ac-(06-34-18) Phe2 Tyr4 Ala6] (Ac-CSFPYRCAHQDLC-NH2; linker 1-7-13 via TBMB)	–	Ki (human plasma Kallikrein [1]; [4]): 1.9 nM; F (Kivar/KiWT) (human plasma Kallikrein [1]; Table 3a): 5; Fragments (human plasma) ([2]; Table 3a): -LHQ, -R
CC(=O)N[C@H]1CSCc2cc3cc(c2)CSC[C@H](NC(=O)[C@H](CCCNC(=N)N)NC(=O)[C@H](Cc2ccc(O)cc2)NC(=O)[C@@H]2CCCN2C(=O)[C@H](Cc2ccccc2)NC(=O)[C@H](CO)NC1=O)C(=O)N[C@@H](CC(C)C)C(=O)N[C@@H](C)C(=O)N[C@@H](CCC(N)=O)C(=O)N[C@@H](CC(=O)O)C(=O)N[C@@H](CC(C)C)C(=O)N[C@H](C(N)=O)CSC3 [Ac-(06-34-18) Phe2 Tyr4 Ala7] (Ac-CSFPYRCLAQDLC-NH2; linker 1-7-13 via TBMB)	–	Kd (human plasma Kallikrein [1]): 23 nM; reduction in potency/affinity compared to wildtype (human plasma Kallikrein [1]): 56 fold; Ki (human plasma Kallikrein [1]; [4]): 23.4 nM; F (Kivar/KiWT) (human plasma Kallikrein [1]; Table 3a): 56; Fragments (human plasma) ([2]; Table 3a): -R
CC(=O)N[C@H]1CSCc2cc3cc(c2)CSC[C@H](NC(=O)[C@H](CCCNC(=N)N)NC(=O)[C@H](Cc2ccc(O)cc2)NC(=O)[C@@H]2CCCN2C(=O)[C@H](Cc2ccccc2)NC(=O)[C@H](CO)NC1=O)C(=O)N[C@@H](CC(C)C)C(=O)N[C@@H](Cc1c[nH]cn1)C(=O)N[C@@H](C)C(=O)N[C@@H](CC(=O)O)C(=O)N[C@@H](CC(C)C)C(=O)N[C@H](C(N)=O)CSC3 [Ac-(06-34-18) Phe2 Tyr4 Ala8] (Ac-CSFPYRCLHADLC-NH2; linker 1-7-13 via TBMB)	–	Ki (human plasma Kallikrein [1]; [4]): 1.74 nM; F (Kivar/KiWT) (human plasma Kallikrein [1]; Table 3a): 4; Fragments (human plasma) ([2]; Table 3a): -LHQ, -R
CC(=O)N[C@H]1CSCc2cc3cc(c2)CSC[C@H](NC(=O)[C@H](CCCNC(=N)N)NC(=O)[C@H](Cc2ccc(O)cc2)NC(=O)[C@@H]2CCCN2C(=O)[C@H](Cc2ccccc2)NC(=O)[C@H](CO)NC1=O)C(=O)N[C@@H](CC(C)C)C(=O)N[C@@H](Cc1c[nH]cn1)C(=O)N[C@@H](CCC(N)=O)C(=O)N[C@@H](C)C(=O)N[C@@H](CC(C)C)C(=O)N[C@H](C(N)=O)CSC3 [Ac-(06-34-18) Phe2 Tyr4 Ala9] (Ac-CSFPYRCLHQALC-NH2; linker 1-7-13 via TBMB)	–	Ki (human plasma Kallikrein [1]; [4]): 1.58 nM; F (Kivar/KiWT) (human plasma Kallikrein [1]; Table 3a): 4; Fragments (human plasma) ([2]; Table 3a): -LHQDL, -R
CC(=O)N[C@H]1CSCc2cc3cc(c2)CSC[C@H](NC(=O)[C@H](CCCNC(=N)N)NC(=O)[C@H](Cc2ccc(O)cc2)NC(=O)[C@@H]2CCCN2C(=O)[C@H](Cc2ccccc2)NC(=O)[C@H](CO)NC1=O)C(=O)N[C@@H](CC(C)C)C(=O)N[C@@H](Cc1c[nH]cn1)C(=O)N[C@@H](CCC(N)=O)C(=O)N[C@@H](CC(=O)O)C(=O)N[C@@H](C)C(=O)N[C@H](C(N)=O)CSC3 [Ac-(06-34-18) Phe2 Tyr4 Ala10] (Ac-CSFPYRCLHQDAC-NH2; linker 1-7-13 via TBMB)	–	Ki (human plasma Kallikrein [1]; [4]): 13.5 nM; F (Kivar/KiWT) (human plasma Kallikrein [1]; Table 3a): 32; Fragments (human plasma) ([2]; Table 3a): -LHQ, -LHQDL, -R
CC(=O)N[C@H]1CSCc2cc3cc(c2)CSC[C@H](NC(=O)[C@H](CCCNC(=N)N)NC(=O)[C@H](Cc2ccc(O)cc2)NC(=O)[C@@H]2CCCN2C(=O)[C@H](Cc2ccccc2)NC(=O)[C@H](CO)NC1=O)C(=O)N[C@@H](CC(C)C)C(=O)N[C@@H](Cc1c[nH]cn1)C(=O)N[C@H](CCC(N)=O)C(=O)N[C@@H](CC(=O)O)C(=O)N[C@@H](CC(C)C)C(=O)N[C@H](C(N)=O)CSC3 [Ac-(06-34-18) Phe2 Tyr4 D-Gln8] (Ac-CSFPYRCLH[dQ]DLC-NH2; linker 1-7-13 via TBMB)	–	Ki (human plasma Kallikrein [1]; [5]): 317 nM; F (Kivar/KiWT) (human plasma Kallikrein [1]; Table 3b): 755; Fragments (human plasma) ([2]; Table 3b): -R, -FPYR
CC(=O)N[C@H]1CSCc2cc3cc(c2)CSC[C@H](NC(=O)[C@H](CCCNC(=N)N)NC(=O)[C@H](Cc2ccc(O)cc2)NC(=O)[C@@H]2CCCN2C(=O)[C@H](Cc2ccccc2)NC(=O)[C@H](CO)NC1=O)C(=O)N[C@@H](CC(C)C)C(=O)N[C@H](Cc1c[nH]cn1)C(=O)N[C@@H](CCC(N)=O)C(=O)N[C@@H](CC(=O)O)C(=O)N[C@@H](CC(C)C)C(=O)N[C@H](C(N)=O)CSC3 [Ac-(06-34-18) Phe2 Tyr4 D-His7] (Ac-CSFPYRCL[dH]QDLC-NH2; linker 1-7-13 via TBMB)	–	Ki (human plasma Kallikrein [1]; [5]): 129 nM; F (Kivar/KiWT) (human plasma Kallikrein [1]; Table 3b): 308; Fragments (human plasma) ([2]; Table 3b): -R, -FPYR
CC(=O)N[C@H]1CSCc2cc3cc(c2)CSC[C@H](NC(=O)[C@H](CCCNC(=N)N)NC(=O)[C@H](Cc2ccc(O)cc2)NC(=O)[C@@H]2CCCN2C(=O)[C@H](Cc2ccccc2)NC(=O)[C@H](CO)NC1=O)C(=O)N[C@@H](CC(C)C)C(=O)N(CCc1c[nH]cn1)CC(=O)N[C@@H](CCC(N)=O)C(=O)N[C@@H](CC(=O)O)C(=O)N[C@@H](CC(C)C)C(=O)N[C@H](C(N)=O)CSC3 [Ac-(06-34-18) Phe2 Tyr4 N-His] (Ac-CSFPYRCL[Gly(N-CH2CH2-imidazol-4-yl)]QDLC-NH2; linker 1-7-13 via TBMB)	–	degradation / fragments in human plasma (in words) ([2]; running text and figure legends): significantly enhanced stability in loop2
CRFPFKCTHQDLC	1	–
CSFLYKCTHQDLC	2	–
CSFPFKCTHQDLC	4	–
CSFPFWCTHQDLC	1	–
CSFPIRCTHQDLC	1	–
CSFPYKCTHQDLC	1	–
CSFPYRCTHQDLC	12	–
CSHPFRCTHQDLC	1	–

Molecule	FREQUENCY (human plasma Kallikrein [3])	further results
CSHRRWCTHQDLC	1	–
CSIPFKCTHQDLC	1	–
CSLPFKCTHQDLC	1	–
CSMPYRCTHQDLC	2	–
CSWAARCTHQDLC	1	–
CSWLARCTHQDLC	8	–
CSWPARCTHQDLC	24	–
CSWPSRCTHQDLC	51	–
CSWPYRCTHQDLC	3	–
CSWQARCTHQDLC	1	–
CSWSARCTHQDLC	10	–
CSWSYRCTHQDLC	1	–
CSYPFRCTHQDLC	1	–
CSYPWRCTHQDLC	1	–
CSYPYRCTHQDLC	2	–

More lines, main results first:

FREQUENCY (human plasma Kallikrein [3])	Molecule	further results
1	CSFMYKCTHQDLC	–
1	CSFPWRCTHQDLC	–
1	CSFSYKCTHQDLC	–
2	CSHPYRCTHQDLC	–
1	CSLFDHCTHQDLC	–
1	CSLPIRCTHQDLC	–
1	CSQVVGCTHQDLC	–
1	CSWHARCTHQDLC	–
7	CSWPFRCTHQDLC	–
1	CSWPYKCTHQDLC	–
1	CSWWARCTHQDLC	–
2	CSYPIRCTHQDLC	–

Reference: patent US10118947B2, “Modulation of structured polypeptide specificity” (BICYCLE THERAPEUTICS LIMITED, priority 2013, dated 2018)
